Measured values as given in publication PMC3150276.

Target: MogR, full-length (transcriptional repressor of flagellar motility genes) (Listeria monocytogenes)
Sequence (G2K449 whole entry): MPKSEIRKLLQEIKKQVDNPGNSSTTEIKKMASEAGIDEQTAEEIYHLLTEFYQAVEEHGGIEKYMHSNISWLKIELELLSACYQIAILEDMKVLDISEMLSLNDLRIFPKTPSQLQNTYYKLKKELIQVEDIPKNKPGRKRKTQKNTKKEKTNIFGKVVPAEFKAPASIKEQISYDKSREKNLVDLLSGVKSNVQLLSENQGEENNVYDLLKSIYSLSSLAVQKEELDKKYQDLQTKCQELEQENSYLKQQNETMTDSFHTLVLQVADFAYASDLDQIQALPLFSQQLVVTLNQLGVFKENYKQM

With “GmaR, full-length (bifunctional flagellar anti-repressor/glycosyltransferase) (natural protein)” the gel mobility shift at 37°C: amount of purified GmaR-His6 needed to decrease shifted MogR-His6:DNA complexes as at 30°C was > 2 fold.
